The record followed here is paper PMC4198471 (Biochimica et biophysica acta, 2014).

The test addresses T1, Trx-RhopH3-C (P. falciparum RhopH3 amino acids 620-897 with Trx and His tags) (Plasmodium falciparum, UniProt Q8I395 620-897).
T1 sequence: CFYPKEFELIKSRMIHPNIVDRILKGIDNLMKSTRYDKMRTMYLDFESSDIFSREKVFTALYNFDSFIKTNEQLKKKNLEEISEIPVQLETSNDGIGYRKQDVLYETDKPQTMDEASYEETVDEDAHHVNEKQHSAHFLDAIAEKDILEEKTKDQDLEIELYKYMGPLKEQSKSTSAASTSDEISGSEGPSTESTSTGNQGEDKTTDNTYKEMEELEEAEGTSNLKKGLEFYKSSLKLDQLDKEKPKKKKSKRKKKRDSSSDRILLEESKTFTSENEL
Kind of test: ELISA. A general note: In an ELISA, binding on a coated surface is turned into a signal by an enzyme label.

B1: GST-5ABC (5ABC region of human erythrocyte band 3, amino acids 720-761, as GST fusion protein) (domain or fragment, UniProt P02730 720-761, looked up)
chain: GMPWLSATTVRSVTHANALTVMGKASTPGAAAQIQEVKEQRI
In general, Kd refers to the free concentration of one partner at which half of the binding sites on the other are occupied at equilibrium, for simple one-to-one binding. Read a low Kd as tighter binding. In turn, B1 had an equilibrium dissociation constant (Kd) of 183 ± 0.111 nM.
